This is an account of results in paper PMC6150732.

The target in this assay is encapsulin from Brevibacterium linens (Brevibacterium linens). Briefly: cryo-EM structure.

“dye-decolorizing peroxidase (DyP) from Brevibacterium linens (enzyme)” had a stoichiometry N (DyP hexamer per encapsulin particle) of 1.

Substance “encapsulin from Brevibacterium linens (natural protein)” registered a stoichiometry N (subunits per particle) of 60.
